In patent US20190127480A1 (Regeneron, published 2019):

molecular target: T1, Soluble heterodimeric CD3 protein (hCD3-epsilon/hCD3-delta) with either a human Fc tag (hFcΔAdp/hFc) or a … (human, UniProt P07766 23-126; P04234 22-105); test: SPR Biacore 25C antigen-capture
T1 construct: also called hCD3ε/δ; not shown: Fc tag: human (hFcΔAdp/hFc)
Description: (§1) Measurements were conducted on a T200 Biacore™ instrument.
In the antigen-capture format, heterodimeric CD3 protein was captured using a rabbit anti-mouse Fc or mouse anti-human Fc and the respective antibodies were injected over the captured antigen.
(§2) Kinetic association (kₐ) and dissociation (kd) rate constants were determined by processing and fitting the data to a 1:1 binding model using Scrubber 2.0 curve fitting software. Binding dissociation equilibrium constants (KD) and dissociative half-lives (t₁₁₂) were calculated from the kinetic rate constants as: KD (M)=kd/kₐ; and t_{1/2} (min)=(ln 2/(60*kd). NT=not tested; NB=no binding observed.

T1 sequence (P07766 23-126 limits assumed, stated change not applied, chain 1 of 2): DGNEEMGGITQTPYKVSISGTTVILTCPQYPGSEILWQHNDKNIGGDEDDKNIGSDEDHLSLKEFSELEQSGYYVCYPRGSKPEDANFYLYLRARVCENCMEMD
T1 sequence (P04234 22-105 limits assumed, stated change not applied, chain 2 of 2): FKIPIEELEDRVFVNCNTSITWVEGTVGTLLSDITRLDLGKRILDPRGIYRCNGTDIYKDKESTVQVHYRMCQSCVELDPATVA

Kd	T½	koff	kon	Binder
0.936 nM	57 min	0.000201 s⁻¹	215000 M⁻¹ s⁻¹	H1H5755B (antibody, human IgG1, V domains shown, H1H: human IgG1 Fc; divalent) VH: EVQLVESGGGVVQPGRSLRLSCAASGFTFSNYGMHWVRQAPGKGLEWVTVILHDGSYKYYADSVKGRFTISRDNSKNTLHLQMNSLRTEDTAVYYCAKGPMFRGVPYNHYYGMDVWGQGTTVTVSS VL: DIQMTQSPSSLSASVGDRVTITCRASQGIRNDLGWYQQKPGKAPKRLIYAASSLQSGVSSRFSGSGSGTEFTLTISSLQPEDFATYYCLQHNSYPYTFGQGTKVEIKR
2.33 nM	70 min	0.000164 s⁻¹	70600 M⁻¹ s⁻¹	H1H5788P (antibody, V domains shown, H1H: human IgG1 Fc; divalent) VH: EVQLVESGGGLVQPGRSLRLSCAASGFTFDDYTMHWVRQAPGKGLEWVSGISWNSGSIGYADSVKGRFTISRDNAKNSLYLQMNSLRAEDTALFYCAKDQSGYGHYYYGMDVWGQGTTVTVSS VL: EIVMTQSPATLSVSPGERATLSCRASQSVSSNLAWYQQKPGQAPRLLIYGASTRATDIPARFSGSGSGTEFTLTISSLQSEDFAVYHCQQYNNWPLTFGGGTKVEIK
0.971 nM	133 min	8.68e-05 s⁻¹	89300 M⁻¹ s⁻¹	H1H2712N (antibody, human IgG1, V domains shown, H1H: human IgG1 Fc; divalent) VH: EVQLVESGGGLVQPGGSLRLSCAATGFTFDDFTMHWVRQAPGKGLEWVSGISWNSGSIGYVDSVKGRFTISRDNAKNSLYLQMNSLRAEDTALYYCAKDNSGYGYYYYGMDVWGQGTTVTVSS VL: EIVMTQSPATLSVSPGERATLSCRASHSVSRNSAWYQQKPGQAPRLLIYGASTRATGIPARFSGSGSGTEFTLTISSLQSEDFAIYYCQQYNNWPLTFGGGTKVEIK

molecular target: T1, Soluble heterodimeric CD3 protein …; test: SPR Biacore 25C antibody-capture
Description: as §1
(§3) Soluble heterodimeric CD3 protein (hCD3-epsilon/hCD3-delta; SEQ ID NOs:1652/1653) with either a human Fc tag (hFcΔAdp/hFc; SEQ ID NOs:1683/1684) or a mouse Fc tag (mFcΔAdp/mFc; SEQ ID NOs:1685/1686) was injected over the antibody captured surface and the binding response was recorded. Heterodimeric CD3 protein was purified using the method described in Davis et al. (US2010/0331527).
as §2

Kd	T½	koff	kon	binding result	Binder
57.5 nM	24 min	0.000472 s⁻¹	8210 M⁻¹ s⁻¹		H1H5755B (antibody, human IgG1, V domains shown, H1H: human IgG1 Fc; divalent) VH: EVQLVESGGGVVQPGRSLRLSCAASGFTFSNYGMHWVRQAPGKGLEWVTVILHDGSYKYYADSVKGRFTISRDNSKNTLHLQMNSLRTEDTAVYYCAKGPMFRGVPYNHYYGMDVWGQGTTVTVSS VL: DIQMTQSPSSLSASVGDRVTITCRASQGIRNDLGWYQQKPGKAPKRLIYAASSLQSGVSSRFSGSGSGTEFTLTISSLQPEDFATYYCLQHNSYPYTFGQGTKVEIKR
				no binding	H1H5782P (antibody, human IgG1, V domains shown, H1H: human IgG1 Fc; divalent) VH: EVQLVESGGGLVQPGRSLRLSCAASGFTFDDYAMHWVRQAPGKGLEWVSGISWNSGSKDYADSVKGRFTISRDNTRNSLFLQMNSLRTEDTALYYCAKDKSGYGSFYYGMDVWGQGTTVTVSS VL: not shown
				no binding	H1H5752P (antibody, human IgG1, V domains shown, H1H: human IgG1 Fc; divalent) VH: QVQLVESGGGVVQPGRSLRPSCAASGFSFRDYGMHWVRQAPGKGLEWMAHIWYNGKNKYYADSVKGRFTISRDNSKNTLYLQMNSLRPEDTAVYYCARDGVSARGTPFDYWGQGTLVTVSS VL: ETTLTQSPAFMSAAPGDKVSISCIASQYIDDDVNWYQQKPGETAIFIIQEASTLVPGISPRFSGSGYGTHFTLTINNIDSEDAAFYFCLQHDNFPYTFGQGTKLEIK
101 nM	40 min	0.000291 s⁻¹	2880 M⁻¹ s⁻¹		H1H5788P (antibody, V domains shown, H1H: human IgG1 Fc; divalent) VH: EVQLVESGGGLVQPGRSLRLSCAASGFTFDDYTMHWVRQAPGKGLEWVSGISWNSGSIGYADSVKGRFTISRDNAKNSLYLQMNSLRAEDTALFYCAKDQSGYGHYYYGMDVWGQGTTVTVSS VL: EIVMTQSPATLSVSPGERATLSCRASQSVSSNLAWYQQKPGQAPRLLIYGASTRATDIPARFSGSGSGTEFTLTISSLQSEDFAVYHCQQYNNWPLTFGGGTKVEIK
88.2 nM	43 min	0.00027 s⁻¹	3060 M⁻¹ s⁻¹		H1H2712N (antibody, human IgG1, V domains shown, H1H: human IgG1 Fc; divalent) VH: EVQLVESGGGLVQPGGSLRLSCAATGFTFDDFTMHWVRQAPGKGLEWVSGISWNSGSIGYVDSVKGRFTISRDNAKNSLYLQMNSLRAEDTALYYCAKDNSGYGYYYYGMDVWGQGTTVTVSS VL: EIVMTQSPATLSVSPGERATLSCRASHSVSRNSAWYQQKPGQAPRLLIYGASTRATGIPARFSGSGSGTEFTLTISSLQSEDFAIYYCQQYNNWPLTFGGGTKVEIK

molecular target: T2, Soluble heterodimeric CD3 protein (hCD3-epsilon/hCD3-delta) with a human Fc tag (hFcΔAdp/hFc) or a mouse Fc … (human, UniProt P07766 23-126; P04234 22-105); test: SPR Biacore, 25 C, antibody-capture format
T2 construct: also called hCD3ε/δ; not shown: Fc tag: human (hFcΔAdp/hFc); which tag was used in Ta
Description: as §1, §3, §2

T2 sequence (P07766 23-126 limits assumed, stated change not applied, chain 1 of 2): as the sequence (P07766 23-126 limits assumed, stated change not applied, chain 1 of 2) above
T2 sequence (P04234 22-105 limits assumed, stated change not applied, chain 2 of 2): as the sequence (P04234 22-105 limits assumed, stated change not applied, chain 2 of 2) above

Kd	T½	koff	kon	Binder
16.2 nM	19 min	0.000611 s⁻¹	37700 M⁻¹ s⁻¹	H2M3540N (antibody, V domains shown, Hybridoma antibody, human variable regions, mouse IgG2 Fc) VH: QVHLEESGGGVVQPGRSLRLSCSASGFTFSSYAMHWVRQAPGKGLEWVAVIWYDGTNKYYLDSVKGRFTISRDNSKNTLFLQMNSLRAEDTAVYYCARDRGSIITHWGQGTLVTVSS VL: DIQMTQSPSSLSASIGDRVTITCRASQNISSYLNWYQQKPGKAPKLLIYAASSLQSGVPSRFSGSGSGTDFTLTISSLQPEDFATYYCQQTYSTPPITFGQGTRLEIK
3.66 nM	97 min	0.000119 s⁻¹	32400 M⁻¹ s⁻¹	H2M3563N (antibody, V domains shown, Hybridoma antibody, human variable regions, mouse IgG2 Fc) VH: EVHLVESGGGLVQPGRSLRLSCAASGFTFDDYTMHWVRQAPGKGLEWVSDISWNSGSIGYADSVKGRFTVSRDNAKNSLYLQMNSLRGEDTALYYCAKDMSGYGHYGKYGMDVWGQGTTVTVSS VL: DIQMTQSPSSLSASVGDRVTITCRASQSIRSYLNWYQQKPGKVPKLLIYAASSLQSGVPSRFSGSGSGTDFTLTINSLQPDDFATYYCQQTYSNPPITFGQGTRLEIK
	82 min			H1M3544N (antibody, V domains shown, Hybridoma antibody, human variable regions, mouse IgG1 Fc) VH: EVQLVESGGGLVQPGRSLRLSCAASGFTFDDYTMHWVRQVPGKGLEWVSGISWNSGSLAYADSVKGRFTISRDNAKNSLYLQMNSLHPEDTALYYCVKDGSGYGHYSYYGLDVWGQGTTVTVSS VL: not shown
15.9 nM	33 min	0.000347 s⁻¹	21800 M⁻¹ s⁻¹	H2M3547N (antibody, V domains shown, Hybridoma antibody, human variable regions, mouse IgG2 Fc) VH: EAQLVESGGGLVQPGRSLRLSCTTSGFTFDDYTMHWVRQAPGKGLEWISDISWNGGTKGYADSVKGRFTISRDNAKNSLYLQMDSLRGEDTALYYCVKDKSGYGHFYFGLDVWGQGTTVTVSS VL: DIQMTQSPSSLTASVGDRVTFTCRASQSISRHLSWYQQKPGKAPKLLIYAASSLESGVPSRFSGSGSGTDFTLTISSLHPEDFATYYCQQSYSNPPITFGQGTRLEIK
10.5 nM	51 min	0.000228 s⁻¹	21800 M⁻¹ s⁻¹	H2M2779N (antibody, V domains shown, Hybridoma antibody, human variable regions, mouse IgG2 Fc) VH: EVQLVESGGGLVQPGGSLRLSCAATGFTFDDFTMHWVRQAPGKGLEWVSGISWNSGSIGYVDSVKGRFTISRDNAKNSLYLQMNSLRAEDTALYYCAKDNSGYGYYYYGMDVWGQGTTVTVSS VL: not shown
80.7 nM	4 min	0.003 s⁻¹	37200 M⁻¹ s⁻¹	H2M2862N (antibody, V domains shown, Hybridoma antibody, human variable regions, mouse IgG2 Fc) VH: QVQLVESGGGVVQPGRSLRLSCAASGFTFRSYGMHWVRQAPGKGLEWVAMIYYDGNNKKYADSVRGRFTISRDNSKNTLYLQMNSLRVEDTAVYFCARGPGYNWLDPWGQGTLVTVSS VL: EIVMTQSPATLSVSPGERATLSCRASQSVSRNLAWYQQKPGQAPRLLIYGASTRATDIPARFSGSGSGTEFILNISSLQSEDFALYYCQQYSNWPLTFGGGTEVEIK
130 nM	2 min	0.00504 s⁻¹	38700 M⁻¹ s⁻¹	H2M3548N (antibody, V domains shown, Hybridoma antibody, human variable regions, mouse IgG2 Fc) VH: EVQLVESGGGLVQPGRSLRLSCAASGFKFADYAMHWVRQAPGKGLEWVSEISWNSGSIGYVDSVKGRFTISRDNAKNSLYLQMNSLRAEDTALYYCVKDKSGYGHYYIGMDVWGQGTTVIVSS VL: not shown
8.9 nM	61 min	0.000189 s⁻¹	21300 M⁻¹ s⁻¹	H2M2778N (antibody, V domains shown, Hybridoma antibody, human variable regions, mouse IgG2 Fc) VH: EVQLVESGGGLVQPGRSLRLSCAASGFTFDDYSMHWVRQAPGKGLEWVSGISWNSRSIDYADSVKGRFTISRDNAKNSLYLQMNSLRAEDTALYYCVKDNSGYGRYYYYGMDVWGQGTTVSVSS VL: KIVMTQSPATLSVSPGERATLSCRASQSVSGNLAWYQQKPGQAPRLLIYGASTRATSIPARFSGSGSGTEFTLTISSLQSEDFAVYFCQHYYNWPLTFGGGTKVEIR
77.6 nM	13 min	0.000919 s⁻¹	11800 M⁻¹ s⁻¹	H1M3549N (antibody, V domains shown, Hybridoma antibody, human variable regions, mouse IgG1 Fc) VH: EVQLVESGGGLVQPGRSLRLSCVASGFPFADYTMHWVRQAPGKGLEWVSDISWNSGSIGYADSVKGRFTISRDNAKNSLYLQMNSLRTEDTALYYCAKDMSGYAHYFYYGMDVWGQGTTVTVSS VL: not shown
30 nM	51 min	0.000226 s⁻¹	7530 M⁻¹ s⁻¹	H2M3543N (antibody, V domains shown, Hybridoma antibody, human variable regions, mouse IgG2 Fc) VH: EVQLVESGGGLVQPGRSLRLSCAASGFTFDDYTMHWVRQAPGKGLEWVSDISWNSGSIGYADSVKGRFTVSRDNAKNSLYLQMNSLRGEDTALYYCAKDMSGYAHYGYYGMDVWGQGTTVTVSS VL: DIQMTQSPSSLSASVGDRVTITCRASQSIRNYLNWYQQKPGKVPKLLIYAASSLQSGVPSRFSGSGSGTDFTLTISSLQPEDFATYYCQQSYSNPPITFGQGTRLEIK
15.7 nM	38 min	0.000304 s⁻¹	19300 M⁻¹ s⁻¹	H1M3613N (antibody, V domains shown, Hybridoma antibody, human variable regions, mouse IgG1 Fc) VH: EVQLVESGGGLVQPGRSLKLSCTASGFTFADYTMHWVRQGPGKGLEWVSDISWNSGSKGYADSVKGRFTISRDNAKNSLYLQMNSLRTEDTALYYCAKDMSGYAHYYYYALDVWGQGTTVTVSS VL: not shown
21.4 nM	23 min	0.000508 s⁻¹	23700 M⁻¹ s⁻¹	H1M3542N (antibody, V domains shown, Hybridoma antibody, human variable regions, mouse IgG1 Fc) VH: EVQLVESGGGLVQPGRSLRLSCVASGFPFADYTMHWVRQAPGKGLEWVSDISWNSGSKGYADSVKGRFTISRDNAKNSLYLQMNSLRTEDTAFYYCAKDMSGYAHYFYYGMDVWGQGTTVTVSS VL: not shown
189 nM	9 min	0.00135 s⁻¹	7100 M⁻¹ s⁻¹	H2M3541N (antibody, V domains shown, Hybridoma antibody, human variable regions, mouse IgG2 Fc) VH: EVQLVESGGGLVRPGRSLRLSCAASGFTFDDYTMHWVRQAPGKGLEWVSDISWNSGTIGYADSVKGRFTISRDNAKNSLYLQMNSLRPEDTALYYCAKDMSGYAHYYYYGMDVWGQGTTVTVSS VL: not shown
